Kd data for two substances are collected here from PMC3098278.

Test in all cases: filter binding
For data set [1], the system named is 80S ribosome, wild-type L11 (Saccharomyces cerevisiae? (yeast)). As to conditions: aminoacylated (N-acetyl-Phe); Nitrocellulose filter binding, 30 C, 35 min (A-site) or 40 min (P-site), poly(U)-primed ribosomes; buffer, salt and pH not given; errors are SD.
Data set [2] concerns 80S ribosome, L11 H109E (Saccharomyces cerevisiae? (yeast)). The conditions noted are these: aminoacylated (N-acetyl-Phe); Nitrocellulose filter binding, 30 C, 35 min (A-site) or 40 min (P-site), poly(U)-primed ribosomes; buffer, salt and pH not given; errors are SD.
The test system of data set [3] is 80S ribosome, L11 87-90R (Saccharomyces cerevisiae? (yeast)). As to conditions: aminoacylated (N-acetyl-Phe); Nitrocellulose filter binding, 30 C, 35 min (A-site) or 40 min (P-site), poly(U)-primed ribosomes; buffer, salt and pH not given; errors are SD.
Data set [4] deals with 80S ribosome, L11 H109F (Saccharomyces cerevisiae? (yeast)). As to conditions: aminoacylated (N-acetyl-Phe); Nitrocellulose filter binding, 30 C, 35 min (A-site) or 40 min (P-site), poly(U)-primed ribosomes; buffer, salt and pH not given; errors are SD.
Data set [5] has as its system 80S ribosome, L11 114-116R (Saccharomyces cerevisiae? (yeast)). As to conditions: aminoacylated (N-acetyl-Phe); Nitrocellulose filter binding, 30 C, 35 min (A-site) or 40 min (P-site), poly(U)-primed ribosomes; buffer, salt and pH not given; errors are SD.
Data set [6] has as its system 80S ribosome, wild-type L11 ((yeast)). The conditions noted are these: poly(U), tRNAPhe in P-site, soluble factors; aminoacylated (Phe); Nitrocellulose filter binding, 30 C, 35 min (A-site) or 40 min (P-site), poly(U)-primed ribosomes; buffer, salt and pH not given; errors are SD.
The test system of data set [7] is 80S ribosome, L11 H109E ((yeast)). The conditions noted are these: poly(U), tRNAPhe in P-site, soluble factors; aminoacylated (Phe); Nitrocellulose filter binding, 30 C, 35 min (A-site) or 40 min (P-site), poly(U)-primed ribosomes; buffer, salt and pH not given; errors are SD.

In the case of Ac-Phe-tRNAPhe (P-site), the Kd in data set [1] was determined as 72.3 nM; in data set [2] it was 42.8 nM; in data set [3], 122 nM; in data set [4], 99.2 nM; in data set [5] it was 41 nM.

Regarding Phe-tRNAPhe (A-site), the Kd in data set [6] is 97.6 nM; in data set [7], 176 nM.
